Laboratory results taken from the supplement of paper PMC10567573.

B1: ZNF511 (parent)
chain: HLYPADFRFDKPKKSRSPASAEAP

Variants of: B1
Assay: protein stability index of a GFP-peptide fusion (GPS, HEK-293T) (PSI 1-6); higher = more stable
Conditions: c terminus: a fixed tail appended
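Note: lentivirally expressed fusions sorted by FACS into six bins by GFP to DsRed ratio, PSI derived from sequencing read proportions per bin multiplied by bin number.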

Compared with HLYPADFRFDKPKKSRSVASAEAP [P18V], HLYPADFRFDKPKKSRSWASAEAP [P18W] is higher in protein stability index: 2.33 for the first, 2.51 for the second.

Going from HLYPADFRFDKPKKSRSYASAEAP [P18Y] to HLYPADFRFDKPKKSRSPCSAEAP [A19C], the protein stability index rises from 2.34 to 2.63.

Going from HLYPADFRFDKPKKSRSPDSAEAP [A19D] to HLYPADFRFDKPKKSRSPESAEAP [A19E], the protein stability index falls from 3.36 to 2.97.

First: HLYPADFRFDKPKKSRSPFSAEAP [A19F]
Second: HLYPADFRFDKPKKSRSPGSAEAP [A19G]
The protein stability index of the first is lower: 2.05 for the first, 3.02 for the second.

Compared with HLYPADFRFDKPKKSRSPHSAEAP [A19H], HLYPADFRFDKPKKSRSPISAEAP [A19I] is higher in protein stability index: 2.68 for the first, 2.74 for the second.

Compared with HLYPADFRFDKPKKSRSPKSAEAP [A19K], HLYPADFRFDKPKKSRSPLSAEAP [A19L] is lower in protein stability index: 3.54 for the first, 2.88 for the second.

First: HLYPADFRFDKPKKSRSPMSAEAP [A19M]
Second: HLYPADFRFDKPKKSRSPNSAEAP [A19N]
The protein stability index of the first is higher: 2.7 for the first, 2.56 for the second.

Going from HLYPADFRFDKPKKSRSPPSAEAP [A19P] to HLYPADFRFDKPKKSRSPQSAEAP [A19Q], the protein stability index falls from 3.18 to 2.56.

Compared with HLYPADFRFDKPKKSRSPRSAEAP [A19R], HLYPADFRFDKPKKSRSPSSAEAP [A19S] is higher in protein stability index: 2.81 for the first, 3.44 for the second.

Going from HLYPADFRFDKPKKSRSPTSAEAP [A19T] to HLYPADFRFDKPKKSRSPVSAEAP [A19V], the protein stability index falls from 3.29 to 2.87.

Going from HLYPADFRFDKPKKSRSPWSAEAP [A19W] to HLYPADFRFDKPKKSRSPYSAEAP [A19Y], the protein stability index rises from 2 to 2.69.

Compared with HLYPADFRFDKPKKSRSPAAAEAP [S20A], HLYPADFRFDKPKKSRSPACAEAP [S20C] is lower in protein stability index: 3.32 for the first, 2.92 for the second.

Compared with HLYPADFRFDKPKKSRSPADAEAP [S20D], HLYPADFRFDKPKKSRSPAEAEAP [S20E] is lower in protein stability index: 2.97 for the first, 2.78 for the second.

First: HLYPADFRFDKPKKSRSPAFAEAP [S20F]
Second: HLYPADFRFDKPKKSRSPAGAEAP [S20G]
The protein stability index of the first is lower: 2.22 for the first, 2.85 for the second.

Going from HLYPADFRFDKPKKSRSPAHAEAP [S20H] to HLYPADFRFDKPKKSRSPAIAEAP [S20I], the protein stability index falls from 2.69 to 2.64.

Compared with HLYPADFRFDKPKKSRSPAKAEAP [S20K], HLYPADFRFDKPKKSRSPALAEAP [S20L] is lower in protein stability index: 2.71 for the first, 2.51 for the second.

Going from HLYPADFRFDKPKKSRSPAMAEAP [S20M] to HLYPADFRFDKPKKSRSPANAEAP [S20N], the protein stability index rises from 2.68 to 3.36.

Going from HLYPADFRFDKPKKSRSPAPAEAP [S20P] to HLYPADFRFDKPKKSRSPAQAEAP [S20Q], the protein stability index falls from 2.72 to 2.42.

Compared with HLYPADFRFDKPKKSRSPARAEAP [S20R], HLYPADFRFDKPKKSRSPATAEAP [S20T] is higher in protein stability index: 2.97 for the first, 3.07 for the second.

First: HLYPADFRFDKPKKSRSPAVAEAP [S20V]
Second: HLYPADFRFDKPKKSRSPAWAEAP [S20W]
The protein stability index of the first is higher: 2.82 for the first, 1.8 for the second.

Compared with HLYPADFRFDKPKKSRSPAYAEAP [S20Y], HLYPADFRFDKPKKSRSPASCEAP [A21C] is higher in protein stability index: 2.61 for the first, 3.1 for the second.

Going from HLYPADFRFDKPKKSRSPASDEAP [A21D] to HLYPADFRFDKPKKSRSPASEEAP [A21E], the protein stability index rises from 2.72 to 3.08.

Compared with HLYPADFRFDKPKKSRSPASFEAP [A21F], HLYPADFRFDKPKKSRSPASGEAP [A21G] is lower in protein stability index: 3.18 for the first, 3 for the second.

Compared with HLYPADFRFDKPKKSRSPASHEAP [A21H], HLYPADFRFDKPKKSRSPASIEAP [A21I] is lower in protein stability index: 3.12 for the first, 2.82 for the second.

Compared with HLYPADFRFDKPKKSRSPASKEAP [A21K], HLYPADFRFDKPKKSRSPASLEAP [A21L] is lower in protein stability index: 2.81 for the first, 2.38 for the second.

Going from HLYPADFRFDKPKKSRSPASMEAP [A21M] to HLYPADFRFDKPKKSRSPASNEAP [A21N], the protein stability index falls from 3 to 2.96.

Going from HLYPADFRFDKPKKSRSPASPEAP [A21P] to HLYPADFRFDKPKKSRSPASQEAP [A21Q], the protein stability index rises from 3.11 to 3.67.

First: HLYPADFRFDKPKKSRSPASREAP [A21R]
Second: HLYPADFRFDKPKKSRSPASSEAP [A21S]
The protein stability index of the first is lower: 2.84 for the first, 3.4 for the second.

Compared with HLYPADFRFDKPKKSRSPASTEAP [A21T], HLYPADFRFDKPKKSRSPASVEAP [A21V] is lower in protein stability index: 2.75 for the first, 2.71 for the second.

Going from HLYPADFRFDKPKKSRSPASWEAP [A21W] to HLYPADFRFDKPKKSRSPASYEAP [A21Y], the protein stability index rises from 2.28 to 2.95.

First: HLYPADFRFDKPKKSRSPASAAAP [E22A]
Second: HLYPADFRFDKPKKSRSPASACAP [E22C]
The protein stability index of the first is higher: 2.7 for the first, 2.67 for the second.

First: HLYPADFRFDKPKKSRSPASADAP [E22D]
Second: HLYPADFRFDKPKKSRSPASAFAP [E22F]
The protein stability index of the first is higher: 2.99 for the first, 2.52 for the second.

Going from HLYPADFRFDKPKKSRSPASAGAP [E22G] to HLYPADFRFDKPKKSRSPASAHAP [E22H], the protein stability index falls from 3.13 to 2.63.

Compared with HLYPADFRFDKPKKSRSPASAIAP [E22I], HLYPADFRFDKPKKSRSPASAKAP [E22K] is lower in protein stability index: 2.93 for the first, 2.69 for the second.

Going from HLYPADFRFDKPKKSRSPASALAP [E22L] to HLYPADFRFDKPKKSRSPASAMAP [E22M], the protein stability index falls from 2.58 to 2.19.

Compared with HLYPADFRFDKPKKSRSPASANAP [E22N], HLYPADFRFDKPKKSRSPASAPAP [E22P] is higher in protein stability index: 2.9 for the first, 2.91 for the second.

Going from HLYPADFRFDKPKKSRSPASAQAP [E22Q] to HLYPADFRFDKPKKSRSPASARAP [E22R], the protein stability index falls from 2.61 to 2.43.

First: HLYPADFRFDKPKKSRSPASASAP [E22S]
Second: HLYPADFRFDKPKKSRSPASATAP [E22T]
The protein stability index of the first is higher: 2.83 for the first, 2.64 for the second.

Going from HLYPADFRFDKPKKSRSPASAVAP [E22V] to HLYPADFRFDKPKKSRSPASAWAP [E22W], the protein stability index falls from 2.7 to 2.44.

Going from HLYPADFRFDKPKKSRSPASAYAP [E22Y] to HLYPADFRFDKPKKSRSPASAECP [A23C], the protein stability index rises from 2.34 to 2.73.

First: HLYPADFRFDKPKKSRSPASAEDP [A23D]
Second: HLYPADFRFDKPKKSRSPASAEEP [A23E]
The protein stability index of the first is higher: 3.24 for the first, 2.88 for the second.

First: HLYPADFRFDKPKKSRSPASAEFP [A23F]
Second: HLYPADFRFDKPKKSRSPASAEGP [A23G]
The protein stability index of the first is lower: 2.76 for the first, 3.28 for the second.

Going from HLYPADFRFDKPKKSRSPASAEHP [A23H] to HLYPADFRFDKPKKSRSPASAEIP [A23I], the protein stability index falls from 3.13 to 2.69.

Compared with HLYPADFRFDKPKKSRSPASAEKP [A23K], HLYPADFRFDKPKKSRSPASAELP [A23L] is lower in protein stability index: 3.19 for the first, 2.88 for the second.

Going from HLYPADFRFDKPKKSRSPASAEMP [A23M] to HLYPADFRFDKPKKSRSPASAENP [A23N], the protein stability index rises from 2.53 to 3.1.

Going from HLYPADFRFDKPKKSRSPASAEPP [A23P] to HLYPADFRFDKPKKSRSPASAEQP [A23Q], the protein stability index falls from 3.37 to 3.06.

Compared with HLYPADFRFDKPKKSRSPASAERP [A23R], HLYPADFRFDKPKKSRSPASAESP [A23S] is higher in protein stability index: 2.8 for the first, 2.86 for the second.
